The data set has as its system N#CO. The data set is described as follows: purified protein. The following applies: free enzyme, standard assay: co-substrate bicarbonate (0.2 mL of 15 mM NaHCO3 in 1 mL), 50 mM Tris-HCl pH 8, 60 °C. The class given is biochemical, Thermomyces lanuginosus.

A word on the Km: it is the concentration of substrate that gives half-maximal velocity. By kcat is commonly meant the maximal rate divided by the concentration of active sites. By kcat/Km is commonly meant the turnover number divided by the Michaelis constant. With TlCyn (Thermomyces lanuginosus), the Km came out at 440 µM, the kcat was determined as 18400 s⁻¹ and the kcat/Km stood at 4.19e+07 M⁻¹ s⁻¹.

(Values after publication PMC11435769, “Entrapment of Cyanase from Thermomyces lanuginosus Using Biomimetic Silica and Its Application for Cyanate Bioremediation” (Polymers, 2024).)
